Experimental data published in patent US20090010911A1, “METHODS AND COMPOSITIONS FOR AFFECTING CYCLOPHILIN A REGULATION OF KINASES IN MODULATING CELLULAR ACTIVITIES” (IOWA STATE UNIVERSITY RESEARCH FOUNDATION, INC., priority 2007, published 2009).

Molecular target: T1, Itk LKD enzyme (Mus musculus, UniProt Q03526)
T1 construct: linker kinase domain (Itk LKD); made in house; host or cells: Sf9 insect cells (baculovirus), co-infected 1:1 with Lck baculovirus
T1 sequence (Q03526 344-625 limits assumed): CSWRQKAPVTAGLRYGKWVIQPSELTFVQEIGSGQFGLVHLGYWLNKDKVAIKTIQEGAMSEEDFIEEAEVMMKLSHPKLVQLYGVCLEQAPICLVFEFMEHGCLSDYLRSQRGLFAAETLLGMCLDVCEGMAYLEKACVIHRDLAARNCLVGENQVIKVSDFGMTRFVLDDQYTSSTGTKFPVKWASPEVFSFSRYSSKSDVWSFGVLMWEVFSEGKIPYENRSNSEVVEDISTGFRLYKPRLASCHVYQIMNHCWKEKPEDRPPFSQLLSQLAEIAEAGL
Assay: Quantitative kinase assay, Km determination for Peptide B and PLCγ1 SH2C-Peptide B fusion
Assay type: biochemical
From the text: 5(a) Construction of a PLCγ1 SH2C-Peptide B fusion protein was based on alignment of Y783 within the PLCγ1 linker and the Tyr of Peptide B. The 14 amino acids of Peptide B were used to replace the last 16 amino acids of PLCγ1 SH2C-Y783-. The Tyr that is phosphorylated in each substrate is boxed. A mutant construct is also shown that contains serine in place of the tyrosine of peptide B. This site was mutated to serine instead of phenylalanine due to solubility problems associated with the Tyr to Phe mutation. 5(b) FLAG-tagged Itk LKD enzyme (1 μM) was incubated with 20 μM of the PLCγ1 SH2C-Peptide B fusion protein (lane 4) or 20 μM of the PLCγ1 SH2C-Peptide B(YS) mutant protein (lane 5) in an in vitro kinase assay. Lanes 1-3 are Itk enzyme alone, PLCγ1 SH2C-Peptide B substrate alone and PLCγ1 SH2C-Peptide B(YS) substrate alone, respectively, that have each been subjected to the same in vitro kinase assay conditions. (c & d) FLAG-tagged Itk LKD enzyme was incubated with increasing amounts of biotinylated PLCγ1 SH2C-Peptide B 5(c) or biotinylated Peptide B alone 5(d) in an in vitro kinase assay. 5(e) Kinetic parameters describing phosphorylation of Peptide B and the PLCγ1 SH2C-Peptide B fusion protein by Itk. Data shown are the average of two independent experiments.
Kinase assays and Western Blotting—Itk Full-length (FL), linker kinase domain (Itk LKD), kinase domain (Itk KD), full-length Btk or full-length Tec were incubated with the indicated substrates in an in vitro kinase assay buffer (50 mM Hepes pH 7.0, 10 mM MgCl2, 1 mM DTT, 1 mg/ml BSA, 1 mM Pefabloc and 200 μM ATP) for one hour at RT. The samples were boiled, separated by SDS-PAGE and transferred onto a PVDF membrane. The membranes were then blotted with either phosphotyrosine specific antibodies (anti-pY783 for PLCγ1 or pY223 Btk antibody used to detect pY180 in Itk, pY187 in Tec and pY223 in Btk (18)), an anti-phosphotyrosine antibody (4G10 from Upstate), or an anti-FLAG antibody (Sigma) and developed by standard chemiluminescence (Pierce) methods. Quantitative kinase assays (25): Km determinations for Peptide B [(Aminohexanoyl biotin-EQEDEPEGIYGVLF-NH2) (Anaspec Inc.)] and the biotinylated PLCγ1 SH2C-Peptide B fusion were carried out by incubating purified Itk LKD enzyme in reaction buffer (50 mM Hepes pH 7.0, 10 mM MgCl2, 1 mM DTT, 1 mg/ml BSA, 1 mM Pefabloc SC (4-(2-aminoethyl)-benzenesulfonyl-fluoride) and 200 μM ATP) and 5 μCi [^32P] ATP (GE Healthcare) at room temperature. Peptide B concentration was varied between 0-400 μM and PLCγ1 SH2C-Peptide B fusion concentration was varied between 0-80 μM. The enzyme concentration used for kinetic analysis was 0.9 μM. Each assay was done in duplicate. […]

B1: SH2-Peptide B fusion: PLCγ1 SH2C domain covalently linked to the amino terminus of Peptide B, biotinylated fusion protein (protein)
chain: QTNAHESKEWYHASLTRAQAEHMLMRVPRDGAFLVRKRNEPNSYAISFRAEGKIKHCRVQQEGQTVMLGNSEFDSLVDLISYYEKHPLYRKMKLRYPINEEALEKIGTAEPDFGAEQEDEPEGIYGVLF
modifications: left off: things letters cannot carry
notes: PLCγ1 SH2C domain covalently linked to the amino terminus of Peptide B, biotinylated fusion protein
**Q.** What does the source list for B1?
**A.** better substrate (kcat/Km) (compared to Peptide B alone): 7 fold; increase in substrate affinity (compared to Peptide B alone): 15 fold; kcat value, change on attachment of PLCγ1 SH2C domain to Peptide B (compared to Peptide B alone): only changed to a small extent; Km (phosphorylation by Itk LKD enzyme 0.9 μM, 200 μM ATP, room temperature): 5.64 µM
